B1: INTS4 (parent)
chain: AKQIMEETYKMEFMYSGVENKQVV

Variants of: B1
Assay: protein stability index of a GFP-peptide fusion (GPS, HEK-293T) (PSI 1-6); higher = more stable
Conditions: c terminus: a fixed tail appended
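Also: lentivirally expressed fusions sorted by FACS into six bins by GFP to DsRed ratio, PSI derived from sequencing read proportions per bin multiplied by bin number.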

Variant	protein stability index
AKQIMEETYKMEFMYSGVENSQVV [K21S]	2.51
AKQIMEETYKMEFMYSGVENCQVV [K21C]	1.92
AKQIMEETYKMEFMYSGVENPQVV [K21P]	2.99
AKQIMEETYKMEFMYSGVENHQVV [K21H]	1.75
AKQIMEETYKMEFMYSGVENNQVV [K21N]	2.25
AKQIMEETYKMEFMYSGVENGQVV [K21G]	2.5
AKQIMEETYKMEFMYSGVENMQVV [K21M]	2.07
AKQIMEETYKMEFMYSGVENKNVV [Q22N]	1.31
AKQIMEETYKMEFMYSGVENKEVV [Q22E]	1.48
AKQIMEETYKMEFMYSGVENKKVV [Q22K]	1.47
AKQIMEETYKMEFMYSGVENKCVV [Q22C]	2.97
AKQIMEETYKMEFMYSGVENKHVV [Q22H]	1.98
AKQIMEETYKMEFMYSGVENKWVV [Q22W]	1.02
AKQIMEETYKMEFMYSGPENKQVV [V18P]	2.5
AKQIMEETYKMEFMYSGSENKQVV [V18S]	2.07
AKQIMEETYKMEFMYSGCENKQVV [V18C]	1.92
AKQIMEETYKMEFMYSGKENKQVV [V18K]	2.72
AKQIMEETYKMEFMYSGNENKQVV [V18N]	2.02
AKQIMEETYKMEFMYSGMENKQVV [V18M]	1.75
AKQIMEETYKMEFMYSGQENKQVV [V18Q]	2.34
AKQIMEETYKMEFMYSGLENKQVV [V18L]	2.12
AKQIMEETYKMEFMYSGHENKQVV [V18H]	1.87
AKQIMEETYKMEFMYSGEENKQVV [V18E]	2.78
AKQIMEETYKMEFMYSGDENKQVV [V18D]	1.88

Variant	protein stability index
AKQIMEETYKMEFMYSGYENKQVV [V18Y]	1.9
AKQIMEETYKMEFMYSGWENKQVV [V18W]	1.95
AKQIMEETYKMEFMYSGIENKQVV [V18I]	1.69
AKQIMEETYKMEFMYSGTENKQVV [V18T]	1.71
AKQIMEETYKMEFMYSGAENKQVV [V18A]	2.04
AKQIMEETYKMEFMYSGGENKQVV [V18G]	2.12
AKQIMEETYKMEFMYSGRENKQVV [V18R]	1.54
AKQIMEETYKMEFMWSGVENKQVV [Y15W]	1.67
AKQIMEETYKMEFMISGVENKQVV [Y15I]	2
AKQIMEETYKMEFMNSGVENKQVV [Y15N]	2.31
AKQIMEETYKMEFMLSGVENKQVV [Y15L]	3.19
AKQIMEETYKMEFMESGVENKQVV [Y15E]	2.9
AKQIMEETYKMEFMRSGVENKQVV [Y15R]	2.67
AKQIMEETYKMEFMASGVENKQVV [Y15A]	2.57
AKQIMEETYKMEFMPSGVENKQVV [Y15P]	3.04
AKQIMEETYKMEFMQSGVENKQVV [Y15Q]	2.61
AKQIMEETYKMEFMKSGVENKQVV [Y15K]	2.62
AKQIMEETYKMEFMCSGVENKQVV [Y15C]	1.93
AKQIMEETYKMEFMMSGVENKQVV [Y15M]	2.54
AKQIMEETYKMEFMDSGVENKQVV [Y15D]	2.37
AKQIMEETYKMEFMTSGVENKQVV [Y15T]	2.08
AKQIMEETYKMEFMSSGVENKQVV [Y15S]	2.15
AKQIMEETYKMEFMHSGVENKQVV [Y15H]	1.88
AKQIMEETYKMEFMVSGVENKQVV [Y15V]	1.69

Variant	protein stability index
AKQIMEETYKMEFMGSGVENKQVV [Y15G]	1.55
AKQIMEETYKMEFDYSGVENKQVV [M14D]	3.4
AKQIMEETYKMEFEYSGVENKQVV [M14E]	2.54
AKQIMEETYKMEFHYSGVENKQVV [M14H]	1.87
AKQIMEETYKMEFAYSGVENKQVV [M14A]	2.25
AKQIMEETYKMEFKYSGVENKQVV [M14K]	1.71
AKQIMEETYKMEFYYSGVENKQVV [M14Y]	1.25
AKQIMEETYKMEFIYSGVENKQVV [M14I]	1.54
AKQIMEETYKMEFCYSGVENKQVV [M14C]	1.98
AKQIMEETYKMEFGYSGVENKQVV [M14G]	2.43
AKQIMEETYKMEFFYSGVENKQVV [M14F]	1.77
AKQIMEETYKMEFQYSGVENKQVV [M14Q]	2.11
AKQIMEETYKMEFTYSGVENKQVV [M14T]	1.63
AKQIMEETYKMEFPYSGVENKQVV [M14P]	3.88
AKQIMEETYKMEFWYSGVENKQVV [M14W]	2.02
AKQIMEETYKMEFNYSGVENKQVV [M14N]	1.99
AKQIMEETYKMEFLYSGVENKQVV [M14L]	2.17
AKQIMEETYKMEFVYSGVENKQVV [M14V]	1.71
AKQIMEETYKMEFSYSGVENKQVV [M14S]	1.66
AKQIMEETYKMEFMYSGVENKQVQ [V24Q]	1.89
AKQIMEETYKMEFMYSGVENKQVT [V24T]	1.72
AKQIMEETYKMEFMYSGVENKQVW [V24W]	2.33
AKQIMEETYKMEFMYSGVENKQVD [V24D]	2.56
AKQIMEETYKMEFMYSGVENKQVA [V24A]	1.75

Variant	protein stability index
AKQIMEETYKMEFMYSGVENKQVK [V24K]	1.98
AKQIMEETYKMEFMYSGVENKQVP [V24P]	2.54
AKQIMEETYKMEFMYSGVENKQVN [V24N]	2.44
AKQIMEETYKMEFMYSGVENKQVH [V24H]	1.65
AKQIMEETYKMEFMYSGVENKQVY [V24Y]	2.01
AKQIMEETYKMEFMYSGVENKQVL [V24L]	1.73
AKQIMEETYKMEFMYSGVENKQVI [V24I]	1.51
AKQIMEETYKMEFMYSGVENKQVE [V24E]	1.78
AKQIMEETYKMEFMYSGVEFKQVV [N20F]	2.86
AKQIMEETYKMEFMYSGVETKQVV [N20T]	1.36
AKQIMEETYKMEFMYSGVEVKQVV [N20V]	1.17
AKQIMEETYKMEFMYSGVEHKQVV [N20H]	1.59
AKQIMEETYKMEFMYSGVESKQVV [N20S]	1.44
AKQIMEETYKMEFMYSGVEKKQVV [N20K]	1.46
AKQIMEETYKMEFMYSGVEQKQVV [N20Q]	2.84
AKQIMEETYKMEFMYSGVEWKQVV [N20W]	3.06
AKQIMEETYKMEFMYSGVEGKQVV [N20G]	2.55
AKQIMEETYKMEFMYSGVEPKQVV [N20P]	1.72
AKQIMEETYKMEFMYSGVELKQVV [N20L]	1.29
AKQIMEETYKMEFMYSGVEDKQVV [N20D]	1.33
AKQIMEETYKMEFMYSGVEYKQVV [N20Y]	1.73
AKQIMEETYKMEFMYSGVEEKQVV [N20E]	2.44

— the supplement of paper PMC10567573
